Assay: yeast display, Sf9 membrane polyspecificity reagent, FACS + sequencing; frameworks hold sequencing errors
Procedure, shortened: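 Polyreactivity labels are assigned by the sorting gate from which each nanobody was recovered. The gates were low and high (top ~1%), set on anti-HA fluorescence for expression and streptavidin fluorescence for reagent binding. Before sorting, galactose-induced (36–48 hours) yeast display cells were stained for 1 hour at 4 °C with 10% biotinylated, detergent-solubilized Sf9 membrane reagent.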

Row | Sequence | polyreactivity (PSR sort gate)
1 | QVQLVESGGGLVQAGGSLRLSCAASGSTFYYNAMGWYRTAPGKERELVAVIDGSGGFTYYADSVKGRFTISRDNAKNTVYLQMNSLKPEDTAVYYCNADLVYNTFIFSGGDEYDYWGQGTQVTVSS | high polyreactivity
2 | QVQLVESGGGLVQAGGSLRLSCAASGRTFLVNAMGWYRQAPGKERELVAVITRGGSTNYADSVKGRFTISRDNAKNTVYLQMNSLKPEDTAVYYCAAEAYYGLWMDYWGQGTQVTVSS | low polyreactivity
3 | QVQLLESGGGLVQSGGSLRVSCAASGRNFGRYDMGWYRQAPGKERELVATISSRGGNTYYADSVKGRVTISRDNAMNTVYLQMNSLTPDDTAVYYCAAQTYKWYDWGQGTQVTVSS | high polyreactivity
4 | QVQLVESGGGLVQAGGSLRLSCAASGSIFFSYAMGWYRQAPGKERELVAAITSSVDSTYYADSVKGRFTISRDNAKNTVYLQMNSLKPEDTAVYYCAARYRSGYYRYDYWGQGTQVTVSS | low polyreactivity
5 | QVQLVESGGGLVQAGGSLRLSCAASGRILGDYAMGWYRQAPGKEREFVAASDYNGGSTNYADSVKGRFTISRDNAKNTVYLQMNSLKPEETAVYYCAAPGFPSRNGFGYWGQGTQVTVSS | low polyreactivity
6 | QVQLLESGVGLVQAGGSLRLSCAASGFTFGYYAMGWYRQAPGKETELVAAISSSDGSTYYADSVKGRFTISRDNAKNTVYLQMNSLKPEDTAVYYCAAEYYSAVYIDEYWYDYWGQGTQVTVSS | high polyreactivity
7 | QVQLVETGGGLVQAGGSLRLSCAASGIIFYGYAMGWYRQAPGKERELVAAITYSGGSTYYADSVKGRFTISRDNAKNTVYLQMNSLKPEDTAVYYCRYDIWVWWSGAYDYWGQGTQVTVSS | low polyreactivity
8 | QVQLVESGGGLVQAGGSLRLTCAASGSIFYYNAMGWYRQAPGKERELVAAISSDGSTYYADSVKGRFTISRDNAKNTVYLQMNSLKPEDTAVYYSAAATLTWSRWGSYYEYDYWGQGTQVTVSS | low polyreactivity
9 | QVQLVESGGGLVQAGGSLRLSCAASGRTFKTYVMGWYRQAPGKERELVAGITSGGGSTYYADSVKGRFTISRDNAKITVYLQMNSLKPEDTAVYYCAAVSKDGFWVSYYYWGQGTQVTVSS | high polyreactivity
10 | QVQLVESGGGLVQAGGTLRLSCAASGSTFRGYAMGWYRQAPGKERELVAAIRRAGSTNYAESVKGRFTISRDNAKNTVYLQMNSLKPEDTAVYYFADSKCLWYGASVSQKKAGMDSWGQGTQVTVSS | low polyreactivity
11 | QDQLVESVGGLVQAGCSLRLSSAASVSIFVIYAMGWYRQAPGNERELVAAISWNGGSTFYADSVKGRITISRDNAKNTVYLQMNSQKPEDTAVYYCNTVASYYRWKSYYYWGQGTQVTVSS | high polyreactivity
12 | QVQLVESGGGLVQAGGSLRLSCAASGSTFYANAMGWYRQAPGKERELVAAIDSGGTTTYADSVKGRFTISRDNAKNTVYLQMNSLKPEDTAVYYCAADQYWYFWYDYWGQGTQVTVSS | low polyreactivity
13 | LVHLQESGGGLVLAGGGLRLSCAASGNIFTYVIMGWYRQPAGKERELVAAITYGTITNYADSVKGPFTISRDNAKNTVYLQMNCLKPEDTAVYHCAVQSTRIVPRHYYCGQGTQVTVSS | high polyreactivity
14 | QVQLVESGGGLVQAGGSLRLSCAASGGIKRPYAMGWSRQAPRKERELVAAISYSGGSTYYADSVKGRFTISRDTAKISVYLLMNSLKTEDTAVYYCIAYRQCSNVLTTYEYWGKGTQVTVSS | high polyreactivity
15 | QVQLVESGGGLVQAGGSLRLSCAASGSTFAHNAMGWYRQAPGKERELVATISGSGGTTRYADSVKGRFTISRDNAKNTVYLQMNSLKPEDTAGYYCAAQSSTPKLYDYWGQGTQVTVSS | low polyreactivity
16 | QVQLVESGGGIVQAGGSLRLSCAASGSTFFDNAMGWYRQAPGKERDLVAAISLTDGITYDADSVKGRFTISRDNAKNTVYLQMNSLKPEDTAVYYCNAVYDWSLDQVWDYFEYEYWGQGSQVTVSS | high polyreactivity

Row | Sequence | polyreactivity (PSR sort gate)
17 | QVQHVESGGGLVQAGGSLRLSCAASGLTFYRYAMGWNRQAPGKERELVAAITSGGSTYYADSVKGRFTISRDNAKNTVYLQMNSLKPEDTAVYYCARQYGYQPERYGYWGQGTQVTVSS | low polyreactivity
18 | QVQLVESGGGLVQAGGSLRLSCAASGRTFELNAMGWYRQAPGKERELVAAISWSGGSTYYADSVKGRFTISRDNAKNTVYLQMNSLKPEDTAVYYCAAQYQQGPFVKYYYWGQGTQVTVSS | high polyreactivity
19 | QVQLVESGGGLVQAGGSLRLSCAASGSTFDDYAMGWYRQAPGKEREFVAAITYGGGNTYYADSVKGRFTISRDNAKNTVYLQMNSLKPEDTAVYYCNKLSRGFSPKYGYWGQGTQVTVSS | high polyreactivity
20 | QVQLVESGGGLVQAGGSLRLSCAASGRTFYLYTMGWYRQAPGKERELVAAITGGGRTYYADSVKGRFTISRDNAKNTVYLQMNSLKPEDTAVYYCNADYAYYSYDYWGQGTQVTVSS | low polyreactivity
21 | QVQLVESGGGLVQAGGSLRLSCAASGFIFDYYAMGWYRQAPGKEWELVAGITRDGSTNYADSVKGRFTISRDNAKNTVYLQMNSLKPEDTAVYYCAAGPPRTRYRNARFDYWGQGTQVTVSS | high polyreactivity
22 | HVQLVESGGGLVQAGGSLRLSCAASGRIFWRYAMGWYRQAPGKEREFVADITYSGGSTYYADSVKGRFTISRDNAKNTVYLQMNSLKPEDTAVYYCAAGWVRPWATYKLDYWGQGTQVTVSS | high polyreactivity
23 | QVQLVESGGGLVQAGGSLRLSCAASGSIFGYNAMVWYRQAPGKESELVAAIRYSGGRTYYADSVKGRFTISRDNAKNSVYLQMNSLKPEDTAVYYCAAPIKFYRYGYTRYDYWGQCTQVTVSS | high polyreactivity
24 | QDQLVESGGGLVQAGGSLRLSCAASGSTLYSNTMGWYRPAPGKERELVAAICWSGASTYYADSVKGRFSISRDNAKNTVYLQMNSLKPEDTAVYYCAAGAYRNWGLYYYWGQGTQVTVSS | high polyreactivity
25 | QVQLVESGGGLVQAGGSLRLSCAASGITLDVNAMGWYRQAPGKERELVADITWSDDTTYYADSVKGRFTISRDNAKNTVYLQMNSLKPEDTAVYYCAADVSVSFHPRGYDYWGQGTQVTVSS | low polyreactivity
26 | QVQLVESGGGLVQAGGSLRLSCAASGSIFVTNAMGWYRQAPGKERELVAAISVSGGSTYYADSEKGRITISRDNAKNTVYLQMNRLKAEDTAGYYCNARQVFTTAGREMDYWGQGTQVTVSS | low polyreactivity
27 | QVQLVESWGGLVQAGGSLRLSCAASGRILNYYDMGWYRQAPGKERELVAGISRGGSTTYADSVKGRFTISRDNAKNTVYLQMISLKPEDTAVYYCNADRSHYWLPYGVRFDYWGQGTQVNVSS | low polyreactivity
28 | QVQLVESGGGLVQAGGSLRLSCAASGRTFKDYAMGWYRPAPGKERELFAAISRGGSTNYADSVKGRFTISRDNAKNTVYLQVNSLKPEDTAVYYCARRYIVQSGDDYWGQGTQVTVSS | low polyreactivity
29 | QVQLVESGGGLVQAGGSLRLSCAASGSTFDNNGMGWYRQAPGKERELVASITFNVGSTYYADSVKGRFTISRDNAKNTVYLQMNSLKPEDTAVYYCAADDLNLSQALGYDYWGQGTQVTVSS | low polyreactivity
30 | QVQLVESGGGLVQAGGSLRLSCAASGRTFYLYTMGWYRQAPGKERELVAGISWSGGSTYADSVKGRFTISRDNAKNTVYLQMNSLKPEDTAVYYCAAEVYYGYDYWGQGTQVTVSS | low polyreactivity
31 | QVQLVESGGGLVQAGGSLRLSCAASGFIFVSYSLGWYRQAPGKERELVAAIDRIGGITYYADSVKGRFTISRDNSKNTVYLQMNSLKPEDTAVYYCAAAASYATVRVGREYYWGQGTHVTVSS | low polyreactivity

From the nanobody polyreactivity screen of Harvey et al. (2022)
